Patent publication US20250243277A1 (AVACTA LIFE SCIENCES, published 2025)

B1: Clone 44 (designed binder)
chain: MIPGGLSEAKPATPEIQEIVDKVKPQLEEKTGETYGKLEAVQYKTQVVRTKETKKSWGTNYYIKVRAGDNKYMHLKVFKSLQKIHAIFYVEDLVLTGYQVDKNKDDELTGF
notes: His-tagged
B2: Clone 43 (designed binder)
chain: MIPGGLSEAKPATPEIQEIVDKVKPQLEEKTGETYGKLEAVQYKTQVVVQHPQWHWKGTNYYIKVRAGDNKYMHLKVFKSLVQQRDVWINEDLVLTGYQVDKNKDDELTGF
notes: His-tagged
B3: Clone 27 (designed binder)
chain: MIPGGLSEAKPATPEIQEIVDKVKPQLEEKTGETYGKLEAVQYKTQVVDVKPKWQWTGTNYYIKVRAGDNKYMHLKVFKSLFEGEDRDAVEDLVLTGYQVDKNKDDELTGF
notes: His-tagged
B4: Clone 66 (designed binder)
chain: MIPGGLSEAKPATPEIQEIVDKVKPQLEEKTGETYGKLEAVQYKTQVVNLKPDVQGSGTNYYIKVRAGDNKYMHLKVFKSLIVVKRYWYVEDLVLTGYQVDKNKDDELTGF
notes: His-tagged
B5: Clone 252 (designed binder)
chain: MIPGGLSEAKPATPEIQEIVDKVKPQLEEKTGETYGKLEAVQYKTQVVAVRPIFKWAGTNYYIKVRAGDNKYMHLKVFKSLFHGPLDNYTEDLVLTGYQVDKNKDDELTGF
notes: His-tagged
B6: Clone 63 (designed binder)
chain: MIPGGLSEAKPATPEIQEIVDKVKPQLEEKTGETYGKLEAVQYKTQVVQEYEDQEWAGTNYYIKVRAGDNKYMHLKVFKSLHLWNQQIYREDLVLTGYQVDKNKDDELTGF
notes: His-tagged
B7: Clone 250 (designed binder)
chain: MIPGGLSEAKPATPEIQEIVDKVKPQLEEKTGETYGKLEAVQYKTQVVRDPDVFVFSGTNYYIKVRAGDNKYMHLKVFKSLWYYNDNQSGEDLVLTGYQVDKNKDDELTGF
notes: His-tagged
B8: Clone 55 (designed binder)
chain: MIPGGLSEAKPATPEIQEIVDKVKPQLEEKTGETYGKLEAVQYKTQVVAGWSLPPHLGTNYYIKVRAGDNKYMHLKVFKSLINHAGQKSDEDLVLTGYQVDKNKDDELTGF
notes: His-tagged
B9: Clone 47 (designed binder)
chain: MIPGGLSEAKPATPEIQEIVDKVKPQLEEKTGETYGKLEAVQYKTQVVGVKQTWNWNGTNYYIKVRAGDNKYMHLKVFKSLFGLNDDEPVEDLVLTGYQVDKNKDDELTGF
notes: His-tagged
B10: Clone 42 (designed binder)
chain: MIPGGLSEAKPATPEIQEIVDKVKPQLEEKTGETYGKLEAVQYKTQVVIQHIWWDFVGTNYYIKVRAGDNKYMHLKVFKSLSRLEPAGHQEDLVLTGYQVDKNKDDELTGF
notes: His-tagged
B11: Clone 53 (designed binder)
chain: MIPGGLSEAKPATPEIQEIVDKVKPQLEEKTGETYGKLEAVQYKTQVVAWDWLPAYRGTNYYIKVRAGDNKYMHLKVFKSLFKFQNESFAEDLVLTGYQVDKNKDDELTGF
notes: His-tagged
B12: Clone 69 (designed binder)
chain: MIPGGLSEAKPATPEIQEIVDKVKPQLEEKTGETYGKLEAVQYKTQVVYKVDNNNYQGTNYYIKVRAGDNKYMHLKVFKSLITWQLNQPREDLVLTGYQVDKNKDDELTGF
notes: His-tagged
B13: Clone 31 (designed binder)
chain: MIPGGLSEAKPATPEIQEIVDKVKPQLEEKTGETYGKLEAVQYKTQVVAQDLSAFQIGTNYYIKVRAGDNKYMHLKVFKSLIFAPLKPWREDLVLTGYQVDKNKDDELTGF
notes: His-tagged
B14: Clone 249 (designed binder)
chain: MIPGGLSEAKPATPEIQEIVDKVKPQLEEKTGETYGKLEAVQYKTQVVIYYPIWGFQGTNYYIKVRAGDNKYMHLKVFKSLRWSKDGATAEDLVLTGYQVDKNKDDELTGF
notes: His-tagged
B15: Clone 6 (designed binder)
chain: MIPGGLSEAKPATPEIQEIVDKVKPQLEEKTGETYGKLEAVQYKTQVVLSEAVYIWAGTNYYIKVRAGDNKYMHLKVFKSLNSRWYGPLGEDLVLTGYQVDKNKDDELTGF
notes: His-tagged
B16: Clone 25 (designed binder)
chain: MIPGGLSEAKPATPEIQEIVDKVKPQLEEKTGETYGKLEAVQYKTQVVVRHPRWFFIGTNYYIKVRAGDNKYMHLKVFKSLKKHGDEVTLEDLVLTGYQVDKNKDDELTGF
notes: His-tagged
B17: Clone 46 (designed binder)
chain: MIPGGLSEAKPATPEIQEIVDKVKPQLEEKTGETYGKLEAVQYKTQVVVQHSLWYFQGTNYYIKVRAGDNKYMHLKVFKSLFKHPEENPVEDLVLTGYQVDKNKDDELTGF
notes: His-tagged
B18: Clone 41 (designed binder)
chain: MIPGGLSEAKPATPEIQEIVDKVKPQLEEKTGETYGKLEAVQYKTQVVGTRDEWHWVGTNYYIKVRAGDNKYMHLKVFKSLFVKDDGRVDEDLVLTGYQVDKNKDDELTGF
notes: His-tagged
B19: Clone 60 (designed binder)
chain: MIPGGLSEAKPATPEIQEIVDKVKPQLEEKTGETYGKLEAVQYKTQVVPQVQEPWWIGTNYYIKVRAGDNKYMHLKVFKSLYKAYIQGWNEDLVLTGYQVDKNKDDELTGF
notes: His-tagged
B20: Clone 64 (designed binder)
chain: MIPGGLSEAKPATPEIQEIVDKVKPQLEEKTGETYGKLEAVQYKTQVVIAHIHWKYFGTNYYIKVRAGDNKYMHLKVFKSLHLAKGQWREEDLVLTGYQVDKNKDDELTGF
notes: His-tagged
B21: Clone 61 (designed binder)
chain: MIPGGLSEAKPATPEIQEIVDKVKPQLEEKTGETYGKLEAVQYKTQVVPTGTHQWAAGTNYYIKVRAGDNKYMHLKVFKSLWASLESGQNEDLVLTGYQVDKNKDDELTGF
notes: His-tagged
B22: Clone 65 (designed binder)
chain: MIPGGLSEAKPATPEIQEIVDKVKPQLEEKTGETYGKLEAVQYKTQVVDYRAIWHWWGTNYYIKVRAGDNKYMHLKVFKSLFHAEGDIWDEDLVLTGYQVDKNKDDELTGF
notes: His-tagged
B23: Clone 4 (designed binder)
chain: MIPGGLSEAKPATPEIQEIVDKVKPQLEEKTGETYGKLEAVQYKTQVVFQTWDHAWTGTNYYIKVRAGDNKYMHLKVFKSLFAAETQQYYEDLVLTGYQVDKNKDDELTGF
notes: His-tagged
B24: Clone 33 (designed binder)
chain: MIPGGLSEAKPATPEIQEIVDKVKPQLEEKTGETYGKLEAVQYKTQVVNQPQPPWIRGTNYYIKVRAGDNKYMHLKVFKSLNWNSPNLTWEDLVLTGYQVDKNKDDELTGF
notes: His-tagged
B25: Clone 5 (designed binder)
chain: MIPGGLSEAKPATPEIQEIVDKVKPQLEEKTGETYGKLEAVQYKTQVVFLDWKQHWRGTNYYIKVRAGDNKYMHLKVFKSLFNDKHNSTEDLVLTGYQVDKNKDDELTGF
notes: His-tagged
B26: Clone 50 (designed binder)
chain: MIPGGLSEAKPATPEIQEIVDKVKPQLEEKTGETYGKLEAVQYKTQVVGRQVKWAWTGTNYYIKVRAGDNKYMHLKVFKSLFKQHHNISEEDLVLTGYQVDKNKDDELTGF
notes: His-tagged
B27: Clone 51 (designed binder)
chain: MIPGGLSEAKPATPEIQEIVDKVKPQLEEKTGETYGKLEAVQYKTQVVSHHASPSHIGTNYYIKVRAGDNKYMHLKVFKSLTTDPNWDVHEDLVLTGYQVDKNKDDELTGF
notes: His-tagged
B28: Clone 35 (designed binder)
chain: MIPGGLSEAKPATPEIQEIVDKVKPQLEEKTGETYGKLEAVQYKTQVVKYETHFYYEGTNYYIKVRAGDNKYMHLKVFKSLPKRWAYNAYEDLVLTGYQVDKNKDDELTGF
notes: His-tagged
B29: Clone 37 (designed binder)
chain: MIPGGLSEAKPATPEIQEIVDKVKPQLEEKTGETYGKLEAVQYKTQVVHHFAEVKWYGTNYYIKVRAGDNKYMHLKVFKSLKITGSTLTFEDLVLTGYQVDKNKDDELTGF
notes: His-tagged
B30: Clone 45 (designed binder)
chain: MIPGGLSEAKPATPEIQEIVDKVKPQLEEKTGETYGKLEAVQYKTQVVREYPHFQGYGTNYYIKVRAGDNKYMHLKVFKSLILNAGGIRWEDLVLTGYQVDKNKDDELTGF
notes: His-tagged
B31: Clone 28 (designed binder)
chain: MIPGGLSEAKPATPEIQEIVDKVKPQLEEKTGETYGKLEAVQYKTQVVAAFSVHPSSGTNYYIKVRAGDNKYMHLKVFKSLEKYHNIWYVEDLVLTGYQVDKNKDDELTGF
notes: His-tagged
B32: Clone 59 (designed binder)
chain: MIPGGLSEAKPATPEIQEIVDKVKPQLEEKTGETYGKLEAVQYKTQVVREPALWHFRGTNYYIKVRAGDNKYMHLKVFKSLTFKVDTWKVEDLVLTGYQVDKNKDDELTGF
notes: His-tagged
B33: Clone 57 (designed binder)
chain: MIPGGLSEAKPATPEIQEIVDKVKPQLEEKTGETYGKLEAVQYKTQVVELDGDHTWLGTNYYIKVRAGDNKYMHLKVFKSLRQLHRIWYFEDLVLTGYQVDKNKDDELTGF
notes: His-tagged
B34: Clone 39 (designed binder)
chain: MIPGGLSEAKPATPEIQEIVDKVKPQLEEKTGETYGKLEAVQYKTQVVEIRPVWDWSGTNYYIKVRAGDNKYMHLKVFKSLFDHESKPTAEDLVLTGYQVDKNKDDELTGF
notes: His-tagged
B35: Clone 248 (designed binder)
chain: MIPGGLSEAKPATPEIQEIVDKVKPQLEEKTGETYGKLEAVQYKTQVVLQLPPRPHDGTNYYIKVRAGDNKYMHLKVFKSLNWEPAQHPVEDLVLTGYQVDKNKDDELTGF
notes: His-tagged

molecular target: T1, human PD-L1-Fc (R&D Systems) (human, UniProt Q9NZQ7 19-239); test: soluble Affimer ELISA
T1 construct: Bought from R&D Systems; Biotinylated in-house for the phage selection; also called huPD-L1-Fc; human PD-L1-Fc antigen; not shown: Fc part of the bought fusion
T1 sequence (Q9NZQ7 19-239 limits assumed): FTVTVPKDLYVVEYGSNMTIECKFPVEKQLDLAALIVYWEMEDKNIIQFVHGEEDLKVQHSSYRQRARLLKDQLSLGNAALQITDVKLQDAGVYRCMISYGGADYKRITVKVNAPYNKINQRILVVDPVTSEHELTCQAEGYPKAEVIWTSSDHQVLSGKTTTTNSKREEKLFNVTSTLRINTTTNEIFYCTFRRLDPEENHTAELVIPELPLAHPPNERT

binding result	Binder
binds	B1
binds	B2
binds	B3
binds	B4
binds	B5
binds	B6
binds	B7
binds	B8
binds	B9
binds	B10
binds	B11
binds	B12
binds	B13
binds	B14
binds	B15
binds	B16
binds	B17
binds	B18

binding result	Binder
binds	B19
binds	B20
binds	B21
binds	B22
binds	B23
binds	B24
binds	B25
binds	B26
binds	B27
binds	B28
binds	B29
binds	B30
binds	B31
binds	B32
binds	B33
binds	B34
binds	B35
